{"source": "patent US20170342107A1", "key": {"[1]": {"target": "mouse melanocortin-3 receptor (mouse) (UniProt P33033)", "sequence (P33033 whole entry)": "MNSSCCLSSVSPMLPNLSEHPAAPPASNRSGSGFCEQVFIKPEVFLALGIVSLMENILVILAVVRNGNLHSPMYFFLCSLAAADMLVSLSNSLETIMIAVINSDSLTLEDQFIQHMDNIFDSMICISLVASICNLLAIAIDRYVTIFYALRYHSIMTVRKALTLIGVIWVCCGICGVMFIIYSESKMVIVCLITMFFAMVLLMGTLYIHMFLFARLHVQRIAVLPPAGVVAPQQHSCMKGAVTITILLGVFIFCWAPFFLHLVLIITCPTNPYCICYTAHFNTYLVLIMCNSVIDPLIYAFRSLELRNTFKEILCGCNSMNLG", "experiment": "cell-based or functional assay"}, "[2]": {"target": "mouse melanocortin-4 receptor (mouse) (UniProt P56450)", "sequence (P56450 whole entry)": "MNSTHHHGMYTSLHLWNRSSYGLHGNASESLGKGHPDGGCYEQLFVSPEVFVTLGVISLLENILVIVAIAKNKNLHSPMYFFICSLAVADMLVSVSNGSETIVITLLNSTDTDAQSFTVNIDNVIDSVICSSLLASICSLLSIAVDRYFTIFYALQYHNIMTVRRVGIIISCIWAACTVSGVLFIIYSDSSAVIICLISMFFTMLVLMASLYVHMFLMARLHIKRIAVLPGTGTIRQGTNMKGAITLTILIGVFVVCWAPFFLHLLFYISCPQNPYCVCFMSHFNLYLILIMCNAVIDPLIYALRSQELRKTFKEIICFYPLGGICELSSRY", "experiment": "cell-based or functional assay"}, "[3]": {"target": "mouse melanocortin-3 receptor (mouse) (UniProt P33033)", "experiment": "125I-NDP-MSH competitive displacement, HEK293 cells stably expressing mMC3R"}, "[4]": {"target": "mouse melanocortin-4 receptor (mouse) (UniProt P56450)", "experiment": "125I-NDP-MSH competitive displacement, HEK293 cells stably expressing mMC4R"}, "[5]": {"target": "mouse melanocortin-4 receptor (mouse) (UniProt P56450)", "experiment": "125I-NDP-MSH competitive displacement, HEK293 cells stably expressing mMC4R; here negative = weaker binder than SKY4-48-1"}}, "note": "Square brackets hold non-standard residues; d marks the D form. Phe(4-I) = N[C@@H](Cc1ccc(I)cc1)C(=O)O"}
{"binder": "Ac-[dF][Phe(4-I)][dR][dH]-NH2 (SMILES CC(=O)N[C@H](Cc1ccccc1)C(=O)N[C@@H](Cc1ccc(I)cc1)C(=O)N[C@H](CCCNC(=N)N)C(=O)N[C@H](Cc1c[nH]cn1)C(N)=O)", "note": "[SKY5-122-2, Ac-DPhe-(pI)Phe-DArg-DHis-NH2]", "values": [{"measurement": "Agonist Activity EC50", "setting": "[1]", "result": "> 100", "unit": "µM"}, {"measurement": "Antagonist Activity K", "setting": "[1]", "result": 400, "unit": "nM"}, {"measurement": "Antagonist Ki", "setting": "[1]", "result": 398, "unit": "nM"}, {"measurement": "pA2 (antagonist)", "setting": "[1]", "result": 6.4, "unit": "pA2"}, {"measurement": "Agonist Activity, % stimulation relative to maximum", "setting": "[2]", "result": 16, "unit": "% @ 100 µM"}, {"measurement": "Agonist, % of NDP-MSH maximal response", "setting": "[2]", "result": 16, "unit": "% @ 100 µM"}, {"measurement": "Antagonist Ki", "setting": "[2]", "result": "> 3.1", "unit": "µM"}, {"measurement": "Fold Diff. (IC50 against SKY4-48-1)", "setting": "[3]", "result": 14, "unit": "fold"}, {"measurement": "IC50", "setting": "[3]", "result": 3.5, "unit": "µM"}, {"measurement": "IC50", "setting": "[4]", "result": 39.5, "unit": "µM"}, {"measurement": "Fold Diff. (IC50 against SKY4-48-1)", "setting": "[5]", "result": -326, "unit": "fold"}]}
